Where two headings read alike, the source gives them in different places. Non-standard residues stand in square brackets, D forms with d. *: point of attachment. Dkb = 3,3-dimethyl-2-ketobutyryl, CC(C)(C)C(=O)C(=O)*; d(β3hF) = N[C@@H](CC(=O)O)Cc1ccccc1; Pip = O=C(O)[C@@H]1CCCCN1; Nle = CCCC[C@H](N)C(=O)O
Legend:
cyclophilin A (CypA) = details: cell free assay; cited from earlier work
FK506-binding protein 12 [1] = biological target: T1, FK506-binding protein 12 (human, UniProt P62942 1-108); assay: fluorescence polarisation
T1 sequence (P62942 whole entry): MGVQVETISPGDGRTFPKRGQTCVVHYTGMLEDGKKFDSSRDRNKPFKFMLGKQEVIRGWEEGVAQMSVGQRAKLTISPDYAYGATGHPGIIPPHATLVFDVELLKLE

FK506-binding protein 12 [2] = biological target: T1, FK506-binding protein 12; assay: fluorescence polarisation; remark: listed apart in the source

Row | Molecule | IC50 (FK506-binding protein 12 [1]) [µM] | further results
1 | CC[C@H]1C[C@H](C)[C@@]2(NC1=O)O[C@@H](C[C@H](O)[C@@H](C)CC/C=C/C=C(\C)[C@@H]1C/C=C/C=C/[C@H](O)[C@H](C)[C@@H](O)[C@@H](CCC(C)=O)C(=O)N[C@@H](C(C)C)C(=O)N[C@@H](Cc3cccc(O)c3)C(=O)N3CCC[C@H](N3)C(=O)O1)[C@H](C)[C@H](O)[C@@H]2C [Sanglifehrin A] |  | IC50 (cyclophilin A (CypA)): ~0.007 µM
2 | cyclo(AP[dV][dA][Dkb][Pip][d(β3hF)]Q) (also: 5 Dkb: ester to 4) [rapalog 12 (R3 D-Val, R4 Pro)] | > 100 | 
3 | cyclo(AP[dF][dA][Dkb][Pip][d(β3hF)]Q) (also: 5 Dkb: ester to 4) [rapalog 12 (R3 D-Phe, R4 Pro)] | > 100 | 
4 | cyclo(AK[dA][Dkb][Pip][d(β3hF)]Q) (also: ester bond between residues 3 and 4) [rapalog 11 (R3 Lys, R4 Ala)] | > 100 | 
5 | cyclo(K[dT][dA][Dkb][Pip][d(β3hF)]Q) (also: ester bond between residues 3 and 4) [rapalog 11 (R3 D-Thr, R4 Lys)] | > 100 | 
6 | cyclo(PA[dA][Dkb][Pip][d(β3hF)]Q) (also: ester bond between residues 3 and 4) [rapalog 11 (R3 Ala, R4 Pro)] | > 100 | 
7 | cyclo(A[dF][dV][dA][Dkb][Pip][d(β3hF)]Q) (also: 5 Dkb: ester to 4) [rapalog 12 (R3 D-Val, R4 D-Phe)] | > 100 | 
8 | cyclo(AA[dA][Dkb][Pip][dI]Q) (also: Dkb 4 joined by ester to 3) [rapalog 2i] |  | IC50 (FK506-binding protein 12 [2]): 266 µM
9 | cyclo(AK[dF][dA][Dkb][Pip][d(β3hF)]Q) (also: 5 Dkb: ester to 4) [rapalog 12 (R3 D-Phe, R4 Lys)] | > 100 | 
10 | cyclo(K[dF][dA][Dkb][Pip][d(β3hF)]Q) (also: ester bond between residues 3 and 4) [rapalog 11 (R3 D-Phe, R4 Lys)] | > 100 | 
11 | cyclo(A[dT]K[dA][Dkb][Pip][d(β3hF)]Q) (also: 5 Dkb: ester to 4) [rapalog 12 (R3 Lys, R4 D-Thr)] | > 100 | 
12 | cyclo(A[dF]P[dA][Dkb][Pip][d(β3hF)]Q) (also: 5 Dkb: ester to 4) [rapalog 12 (R3 Pro, R4 D-Phe)] | 87 | 
13 | cyclo(A[Nle]K[dA][Dkb][Pip][d(β3hF)]Q) (also: 5 Dkb: ester to 4) [rapalog 12 (R3 Lys, R4 Nle)] | > 100 | 
14 | cyclo([dV]K[dA][Dkb][Pip][d(β3hF)]Q) (also: ester bond between residues 3 and 4) [rapalog 11 (R3 Lys, R4 D-Val)] | 80 | 
15 | cyclo(AKA[dA][Dkb][Pip][d(β3hF)]Q) (also: 5 Dkb: ester to 4) [rapalog 12 (R3 Ala, R4 Lys)] | > 100 | 
16 | cyclo(KK[dA][Dkb][Pip][d(β3hF)]Q) (also: ester bond between residues 3 and 4) [rapalog 11 (R3 Lys, R4 Lys)] | > 100 | 
17 | cyclo([dV][dV][dA][Dkb][Pip][d(β3hF)]Q) (also: ester bond between residues 3 and 4) [rapalog 11 (R3 D-Val, R4 D-Val)] | > 100 | 
18 | cyclo([dF][dV][dA][Dkb][Pip][d(β3hF)]Q) (also: ester bond between residues 3 and 4) [rapalog 11 (R3 D-Val, R4 D-Phe)] | > 100 | 
19 | cyclo(A[dT][Nle][dA][Dkb][Pip][d(β3hF)]Q) (also: 5 Dkb: ester to 4) [rapalog 12 (R3 Nle, R4 D-Thr)] | > 100 | 
20 | cyclo([dV]P[dA][Dkb][Pip][d(β3hF)]Q) (also: 4 Dkb: ester to 3) [rapalog 11 (R3 Pro, R4 D-Val)] | 64 | 
21 | cyclo(A[dV][dV][dA][Dkb][Pip][d(β3hF)]Q) (also: 5 Dkb: ester to 4) [rapalog 12 (R3 D-Val, R4 D-Val)] | > 100 | 
22 | cyclo(K[Nle][dA][Dkb][Pip][d(β3hF)]Q) (also: ester bond between residues 3 and 4) [rapalog 11 (R3 Nle, R4 Lys)] | > 100 | 
23 | cyclo(AAK[dA][Dkb][Pip][d(β3hF)]Q) (also: 5 Dkb: ester to 4) [rapalog 12 (R3 Lys, R4 Ala)] | > 100 | 
24 | cyclo([Nle]P[dA][Dkb][Pip][d(β3hF)]Q) (also: 4 Dkb: ester to 3) [rapalog 11 (R3 Pro, R4 Nle)] | 71 | 
25 | cyclo([Nle][dT][dA][Dkb][Pip][d(β3hF)]Q) (also: ester bond between residues 3 and 4) [rapalog 11 (R3 D-Thr, R4 Nle)] | > 100 | 
26 | cyclo(AP[dT][dA][Dkb][Pip][d(β3hF)]Q) (also: 5 Dkb: ester to 4) [rapalog 12 (R3 D-Thr, R4 Pro)] | > 100 | 
27 | cyclo(AAF[Dkb][Pip][d(β3hF)]Q) (also: Dkb 4 joined by ester to 3) [rapalog 2k] |  | IC50 (FK506-binding protein 12 [2]): 18 µM
28 | cyclo(GK[dA][Dkb][Pip][d(β3hF)]Q) (also: ester bond between residues 3 and 4) [rapalog 11 (R3 Lys, R4 Gly)] | 93 | 

More lines, in order of falling IC50 (FK506-binding protein 12 [1]), values ahead:

Row | IC50 (FK506-binding protein 12 [1]) [µM] | Molecule | further results
29 | 62 | cyclo([dT]K[dA][Dkb][Pip][d(β3hF)]Q) (also: ester bond between residues 3 and 4) [rapalog 11 (R3 Lys, R4 D-Thr)] | 
30 | 58 | cyclo(PK[dA][Dkb][Pip][d(β3hF)]Q) (also: ester bond between residues 3 and 4) [rapalog 11 (R3 Lys, R4 Pro)] | 
31 | 46 | cyclo([dF]P[dA][Dkb][Pip][d(β3hF)]Q) (also: 4 Dkb: ester to 3) [rapalog 11 (R3 Pro, R4 D-Phe)] | 
32 | 43 | cyclo(A[dV]P[dA][Dkb][Pip][d(β3hF)]Q) (also: 5 Dkb: ester to 4) [rapalog 12 (R3 Pro, R4 D-Val)] | 
33 | 41 | cyclo([dT]P[dA][Dkb][Pip][d(β3hF)]Q) (also: 4 Dkb: ester to 3) [rapalog 11 (R3 Pro, R4 D-Thr)] | 
34 | 38 | cyclo(A[dT]P[dA][Dkb][Pip][d(β3hF)]Q) (also: 5 Dkb: ester to 4) [rapalog 12 (R3 Pro, R4 D-Thr)] | 
35 | 36 | cyclo(KP[dA][Dkb][Pip][d(β3hF)]Q) (also: 4 Dkb: ester to 3) [rapalog 11 (R3 Pro, R4 Lys)] | 
36 | 33 | cyclo(AP[dA][Dkb][Pip][d(β3hF)]Q) (also: ester bond between residues 3 and 4) [rapalog 11 (R3 Pro, R4 Ala)] | 
37 | 29 | cyclo(AKP[dA][Dkb][Pip][d(β3hF)]Q) (also: 5 Dkb: ester to 4) [rapalog 12 (R3 Pro, R4 Lys)] | 
38 | 27 | cyclo(PP[dA][Dkb][Pip][d(β3hF)]Q) (also: 4 Dkb: ester to 3) [rapalog 11 (R3 Pro, R4 Pro)] | 
39 | 21 | cyclo(DP[dA][Dkb][Pip][d(β3hF)]Q) (also: ester bond between residues 3 and 4) [rapalog 11 (R3 Pro, R4 Asp)] | 
40 | 21 | cyclo(AAP[dA][Dkb][Pip][d(β3hF)]Q) (also: 5 Dkb: ester to 4) [rapalog 12 (R3 Pro, R4 Ala)] | 
41 | 21 | cyclo(WP[dA][Dkb][Pip][d(β3hF)]Q) (also: 4 Dkb: ester to 3) [rapalog 11 (R3 Pro, R4 Trp)] | 
42 | 12 | cyclo(WK[dA][Dkb][Pip][d(β3hF)]Q) (also: ester bond between residues 3 and 4) [rapalog 11 (R3 Lys, R4 Trp)] | 
43 | 6 | cyclo(AGP[dA][Dkb][Pip][d(β3hF)]Q) (also: 5 Dkb: ester to 4) [rapalog 12 (R3 Pro, R4 Gly)] | 
44 | 3 | cyclo(ADP[dA][Dkb][Pip][d(β3hF)]Q) (also: 5 Dkb: ester to 4) [rapalog 12 (R3 Pro, R4 Asp)] | 
